# From PMC10420310, “The Complex Proteolipidic Behavior of the SARS-CoV-2 Envelope Protein Channel: Weak Selectivity and Heterogeneous Oligomerization” (International Journal of Molecular Sciences, 2023)
# B1: transmembrane domain of SARS-2 E corresponding to residues 7–38 (E-TM) (peptide)
# chain: EETGTLIVNSVLLFLAFVVFLLVTLAILTALR
# notes: SARS-CoV-2 envelope (E) protein, transmembrane domain, residues 7-38; monomer 3490 Da; also called E-TM 7–38
# Target: the molecule itself
# Assay: AUC; sedimentation velocity, E-TM at DPR 25 (lowest DPR tested) in 5 mM C14SB micelles, 50 mM Tris-HCl pH 7.3, 100 mM NaCl, 29.4% D2O, 20 °C, 50,000 rpm
protein,measurement,value
B1,stoichiometry N,~3.3
